Measurements published in US20030203372A1, “Analysis method” (priority 2000, published 2003).

Key:
human macrophages = test: Custom gene array, macrophages with no cytokines, IL-10 or LPS + IFN, in normoxia and hypoxia; type: cell-based; conditions: for mRNA EXPRESSION (experimental condition) #1: #1 no cytokines/normoxia; for mRNA EXPRESSION (experimental condition) #2: #2 no cytokines/hypoxia; for mRNA EXPRESSION (experimental condition) #3: #3 IL-10/normoxia; for mRNA EXPRESSION (experimental condition) #4: #4 IL-10/hypoxia; for mRNA EXPRESSION (experimental condition) #5: #5 LPS/IFN/normoxia; for mRNA EXPRESSION (experimental condition) #6: #6 LPS/IFN/hypoxia
Protocol: Macrophages were derived and cultured as described elsewhere in the specification. A total of 6 experimental conditions were analysed, as shown below. Where cells were treated with cytokines or hypoxia (0.1% oxygen), this was for 6 hr. Lipopolysaccharide (LPS) (from E.coli 026:B6; Sigma), gamma Interferon (IFN) and Interleukin-10 (IL-10) were all used at a final concentration of 100 ng/ml. The effect of gamma Interferon and Lipopolysaccharide is to activate macrophages, with a Th1 biased phenotype, as found in many inflammatory conditions. Interleukin-10 is a Th2 cytokine and de-activates macrophages, and suppresses their effector functions.

[1] = tested on: primary human cell cultures (11 cell types); test: Custom gene array, 11 human cell types in normoxia or hypoxia for 6 hr and 18 hr; type: cell-based;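 for mRNA expression level, #1 HY 18 hr: cell type #1 is adipocyte from subcutaneous adult adipose tissue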;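 for mRNA expression level, #1 HY 6 hr: cell type #1 is adipocyte from subcutaneous adult adipose tissue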;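 for mRNA expression level, #1 NO: cell type #1 is adipocyte from subcutaneous adult adipose tissue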;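 for mRNA expression level, #2 HY 18 hr: cell type #2 is fetal cardiomyocyte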;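 for mRNA expression level, #2 HY 6 hr: cell type #2 is fetal cardiomyocyte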;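 for mRNA expression level, #2 NO: cell type #2 is fetal cardiomyocyte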;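 for mRNA expression level, #3 HY 6 hr: cell type #3 is human umbilical vein endothelial cells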;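 for mRNA expression level, #3 NO: cell type #3 is human umbilical vein endothelial cells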;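 for mRNA expression level, #4 HY 18 hr: cell type #4 is adult dermal fibroblast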;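 for mRNA expression level, #4 HY 6 hr: cell type #4 is adult dermal fibroblast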;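 for mRNA expression level, #4 NO: cell type #4 is adult dermal fibroblast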;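 for mRNA expression level, #5 HY 6 hr: cell type #5 is adult hepatocyte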;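 for mRNA expression level, #5 NO: cell type #5 is adult hepatocyte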;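 for mRNA expression level, #6 HY 6 hr: cell type #6 is blood-derived macrophage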;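 for mRNA expression level, #6 NO: cell type #6 is blood-derived macrophage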
Procedure, shortened: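 Values are each gene's expression relative to its median over all cell types and conditions, after per-array normalisation to control genes and merging of replicate arrays. Cells were 11 human types, mostly unmodified primary cultures, kept in normoxia or exposed to hypoxia for 6 hr or 18 hr.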

[2] = Table 16, referenced to median of the gene over 6 conditions
[3] = Table 15, referenced to the median value of that gene throughout all 6 conditions

B1: p1G20 (nucleic acid, listed as Homo Sapiens)
DNA: GAGTAGGAGTGCCTCCTTGTCTGCACTGCTGGTATGGGGTTAGGCCAGGTAGGACATTCCAGAGGGGCTTCTGAAAACCAAGAGTCCCTGGGGAAAGGGAACAGAGTAAGGCAGGCCTTGTTCTCACTGCCCTCTAAGGGAACTTGGTCACTCGGCACTTTTAAGCCTCAGTTTCTCCAGTTCAATAATAAGGACAAGAGCTTTTCCCATGCATTCTCTTTCCCCGGGAAAGTTGACTGAGGTGACCAGTAATAGAATTGAAAAGGGAGAGTGTCTTCAGTGCAATGTGGCATCCTGGATTGGGTCTTGGAACAAAAACAGGACATTAGTGGGAAAATTGGAAATCTGAAAAAAGTCTGAATTTTAGTTAATATACCAATTTCAGTCTCTTGGTTTTGACAGATGTACCATGGTGATGTAAGATGTTGACCTTGGGGTAGGCTGGGTGAAGGGTATACAGGAACTCTTTGTACTATCTCTGCAACTTCTCTGTAAATCTAGTATCATTCCAAAATAAAAGTTTATTTAATTTAAAAAAAAAA
- mRNA EXPRESSION (experimental condition) #1 (human macrophages; [2]): 1.45
- mRNA EXPRESSION (experimental condition) #2 (human macrophages; [2]): 0.73
- mRNA EXPRESSION (experimental condition) #3 (human macrophages; [2]): 1.60
- mRNA EXPRESSION (experimental condition) #4 (human macrophages; [2]): 1.12
- mRNA EXPRESSION (experimental condition) #5 (human macrophages; [2]): 0.57
- mRNA EXPRESSION (experimental condition) #6 (human macrophages; [2]): 0.44
- HIGHEST FOLD CHANGE IN HYPOXIA (hr hypoxia + cell type) ([1]; DOWN, 18 hr cardiomyocyte): 4.17 DOWN (18 hr cardiomyocyte) ^ fold
- mRNA expression level ([1]; cell type #1, HY (hypoxia) 6 hr): 0.48
- mRNA expression level ([1]; cell type #1, HY (hypoxia) 18 hr): 0.50
- mRNA expression level ([1]; cell type #1, NO (normoxia)): 0.74
- mRNA expression level ([1]; cell type #2, HY (hypoxia) 6 hr): 0.66
- mRNA expression level ([1]; cell type #2, HY (hypoxia) 18 hr): 0.36
- mRNA expression level ([1]; cell type #2, NO (normoxia)): 1.54
- mRNA expression level ([1]; cell type #3, HY (hypoxia) 6 hr): 1.26
- mRNA expression level ([1]; cell type #3, HY (hypoxia) 18 hr): 1.03
- mRNA expression level ([1]; cell type #3, NO (normoxia)): 1.64
- mRNA expression level ([1]; cell type #4, HY (hypoxia) 6 hr): 0.84
- mRNA expression level ([1]; cell type #4, HY (hypoxia) 18 hr): 0.84
- mRNA expression level ([1]; cell type #4, NO (normoxia)): 0.99
- mRNA expression level ([1]; cell type #5, HY (hypoxia) 6 hr): 1.19
- mRNA expression level ([1]; cell type #5, NO (normoxia)): 1.34
- mRNA expression level ([1]; cell type #6, HY (hypoxia) 6 hr): 0.98
- mRNA expression level ([1]; cell type #6, NO (normoxia)): 1.29

B2: p2L23 (nucleic acid, listed as Homo Sapiens)
DNA: GGAGCTGTTTACCCCCACTCTAATAGGGGTTCAATATAAAAAGCCGGCAGAGAGCTGTCCAAGTCAGACGCGCCTCTGCATCTGCGCCAGGCGAACGGGTCCTGCGCCTCCTGCAGTCCCAGCTCTCCACCACCGCCGCGTGCGCCTGCAGACGCTCCGCTCGCTGCCTTCTCTCCTGGCAGGCGCTGCCTTTTCTCCCCGTTAAAGGGCACTTGGGCTGAAGGATCGCTTTGAGATCTGAGGAACCCGCAGCGCTTTGAGGGACCTGAAGCTGTTTTTCTTCGTTTTCCTTTGGGTTCAGTTTGAACGGGAGGTTTTTGATCCCTTTTTTTCAGAATGGATTATTTGCTCATGATTTTCTCTCTGCTGTTTGTGGCTTGCCAAGGAGCTCCAGAAACAGCAGTCTTAGGCGCTGAGCTCAGCGCGGTGGGTGAGAACGGCGGGGAGAAACCCACTCCCAGTCCACCCTGGCGGCTCCGCCGGTCCAAGCGCTGCTCCTGCTCGTCCCTGATGGATAAAGAGTGTGTCTACTTCTGCCACCTGGACATCATTTGGGTCAACACTCCCGAGCACGTTGTTCCGTATGGACTTGGAAGCCCTAGGTCCAAGAGAGCCTTGGAGAATTTACTTCCCACAAAGGCAACAGACCGTGAGAATAGATGCCAATGTGCTAGCCAAAAAGACAAGAAGTGCTGGAATTTTTGCCAAGCAGGAAAAGAACTCAGGGCTGAAGACATTATGGAGAAAGACTGGAATAATCATAAGAAAGGAAAAGACTGTTCCAAGCTTGGGAAAAAGTGTATTTATCAGCAGTTAGTGAGAGGAAGAAAAATCAGAAGAAGTTCAGAGGAACACCTAAGACAAACCAGGTCGGAGACCATGAGAAACAGCGTCAAATCATCTTTTCATGATCCCAAGCTGAAAGGCAAGCCCTCCAGAGAGCGTTATGTGACCCACAACCGAGCACATTGGTGACAGACTTCGGGGCCTGTCTGAAGCCATAGCCTCCACGGAGAGCCCTGTGGCCGACTCTGCACTCTCCACCCTGGCTGGGATCAGAGCAGGAGCATCCTCTGCTGGTTCCTGACTGGCAAAGGACCAGCGTCCTCGTTCAAAACATTCCAAGAAAGGTTAAGGAGTTCCCCCAACCATCTTCACTGGCTTCCATCAGTGGTAACTGCTTTGGTCTCTTCTTTCATCTGGGGATGACAATGGACCTCTCAGCAGAAACACACAGTCACATTCGAATTC
- mRNA EXPRESSION (experimental condition) #1 (human macrophages; [3]): 1.02
- mRNA EXPRESSION (experimental condition) #2 (human macrophages; [3]): 0.62
- mRNA EXPRESSION (experimental condition) #3 (human macrophages; [3]): 0.74
- mRNA EXPRESSION (experimental condition) #4 (human macrophages; [3]): 0.50
- mRNA EXPRESSION (experimental condition) #5 (human macrophages; [3]): 11.4
- mRNA EXPRESSION (experimental condition) #6 (human macrophages; [3]): 10.1

B3: p1E7 (nucleic acid, listed as Homo Sapiens)
DNA: GCTTGAGATCTCCAGCCTTACCGCGGCTCGAAATGGCCCCAACTGCTCCTGCACCACTGGTGTCTCCTGCANCTGCACCGGCTCCTGCAAGTGCAAAGAGTGCAAATGACCTCCTGCAAGAAGAGCTGCTGNNCTGCTGCCCCGTGGTGTGCAAGTGTGCCACGGTGTGTCTGCAAAGGGACGTTGGAGAACTGCAGCTGCTGTNCTGATGTGGGAACAAGCTCTTCTCCCAGATGTTAATAGAACAAGCTGCACAACCTGGGATTTTTTTTCAATACGATACTTGAGCCATTTTCTGCATTTCTTTTTATTGTTAAATATGTGAGTGACAATAAAACAATTTTGACTTTGAATCTTAAAAA
modifications: EST array clone; misc_feature 72, 132, 133, 205: n = A,T,C or G
- mRNA EXPRESSION (experimental condition) #1 (human macrophages; [3]): 0.49
- mRNA EXPRESSION (experimental condition) #2 (human macrophages; [3]): 1.26
- mRNA EXPRESSION (experimental condition) #3 (human macrophages; [3]): 0.70
- mRNA EXPRESSION (experimental condition) #4 (human macrophages; [3]): 1.11
- mRNA EXPRESSION (experimental condition) #5 (human macrophages; [3]): 1.32
- mRNA EXPRESSION (experimental condition) #6 (human macrophages; [3]): 2.89
- mRNA expression level, #1 HY 6 hr ([1]; cell type #1, hypoxia 6 hr): 1.29
- mRNA expression level, #1 HY 18 hr ([1]; cell type #1, hypoxia 18 hr): 1.63
- mRNA expression level, #1 NO ([1]; cell type #1, normoxia): 1.20
- mRNA expression level, #2 HY 6 hr ([1]; cell type #2, hypoxia 6 hr): 0.18
- mRNA expression level, #2 HY 18 hr ([1]; cell type #2, hypoxia 18 hr): 0.22
- mRNA expression level, #2 NO ([1]; cell type #2, normoxia): 0.12
- mRNA expression level, #3 HY 6 hr ([1]; cell type #3, hypoxia 6 hr): 1.03
- mRNA expression level, #3 HY 18 hr ([1]; cell type #3, hypoxia 18 hr): 0.71
- mRNA expression level, #3 NO ([1]; cell type #3, normoxia): 1.40
- mRNA expression level, #4 HY 6 hr ([1]; cell type #4, hypoxia 6 hr): 2.17
- mRNA expression level, #4 HY 18 hr ([1]; cell type #4, hypoxia 18 hr): 2.85
- mRNA expression level, #4 NO ([1]; cell type #4, normoxia): 2.36
- mRNA expression level, #5 HY 6 hr ([1]; cell type #5, hypoxia 6 hr): 6.75
- mRNA expression level, #5 NO ([1]; cell type #5, normoxia): 4.89
- mRNA expression level, #6 HY 6 hr ([1]; cell type #6, hypoxia 6 hr): 1.07
- #6 HY 18 hr (mRNA expression level) ([1]; cell type #6, hypoxia 18 hr): 0.86
- mRNA expression level, #6 NO ([1]; cell type #6, normoxia): 0.08
- #7 HY 6 hr (mRNA expression level) ([1]; cell type #7, hypoxia 6 hr): 2.06
- #7 HY 18 hr (mRNA expression level) ([1]; cell type #7, hypoxia 18 hr): 1.32
- #7 NO (mRNA expression level) ([1]; cell type #7, normoxia): 0.87
- #8 HY 6 hr (mRNA expression level) ([1]; cell type #8, hypoxia 6 hr): 0.75
- #8 HY 18 hr (mRNA expression level) ([1]; cell type #8, hypoxia 18 hr): 1.20
- #8 NO (mRNA expression level) ([1]; cell type #8, normoxia): 0.03
- #9 HY 6 hr (mRNA expression level) ([1]; cell type #9, hypoxia 6 hr): 0.05
- #9 HY 18 hr (mRNA expression level) ([1]; cell type #9, hypoxia 18 hr): 0.04
- #9 NO (mRNA expression level) ([1]; cell type #9, normoxia): 0.04
- #10 HY 6 hr (mRNA expression level) ([1]; cell type #10, hypoxia 6 hr): 2.60
- #10 HY 18 hr (mRNA expression level) ([1]; cell type #10, hypoxia 18 hr): 3.60
- #10 NO (mRNA expression level) ([1]; cell type #10, normoxia): 3.09
- #11 HY 6 hr (mRNA expression level) ([1]; cell type #11, hypoxia 6 hr): 0.70
- #11 HY 18 hr (mRNA expression level) ([1]; cell type #11, hypoxia 18 hr): 0.74
- #11 NO (mRNA expression level) ([1]; cell type #11, normoxia): 0.60
- HIGHEST FOLD CHANGE IN HYPOXIA (hr hypoxia + cell type) ([1]; hypoxia/normoxia induction ratio, 18 hr monocyte): 37.9 (18 hr monocyte) fold
